Results: US5614198A, “Bowman-Birk Inhibitor compositions for treatment of inflammatory disease” (The Trustees of the University of Pennsylvania, priority 1995, dated 1997)
“Also recorded” adds a separate entry of the source.

Assays:
[1] = test system: proteolytic activity in colon mucosa; experiment: proteolytic activity in colon mucosal biopsy samples of DMH-treated rats (MCA substrates); assay type: in vivo, rat; conditions: for levels of proteolytic activity in colon mucosa of DMH-exposed animals: one month after last DMH dose, 0.1% dietary BBIC, FIG. 5; for Protease Activity/μg protein, Glt-Gly-Arg-MCA, Mean / Protease Activity/μg protein, Boc-Val-Leu-Lys-MCA, Mean / Protease Activity/μg protein, Boc-Val-Pro-Arg-MCA, Mean: rat colon biopsy one month after last DMH injection (total 80 mg/kg), 0.1% dietary inhibitor where given, 1 animal, 3 samples; for Protease Activity/μg protein, Glt-Gly-Arg-MCA, Mean: control 1.21; for Protease Activity/μg protein, Boc-Val-Leu-Lys-MCA, Mean: control 3.07; for Protease Activity/μg protein, Boc-Val-Pro-Arg-MCA, Mean: control 15.97
Protocol: The levels of proteolytic activity were determined as following. Colon mucosal biopsy samples were thawed on ice and homogenized in ice-cold PBS in a sterile teflon-glass homogenizer. The level of proteolytic activity was measured by incubating aliquots of sample in 0.1M Tris (pH 7.5)-5 mM CaC12, with each of the following synthetic substrates: Boc-Val-Pro-Arg-MCA; Boc-Val-Leu-Lys-MCA; and Glt-Gly-Arg-MCA (Peninsula Laboratories, Inc., Belmont, Calif.). These substrates were selected since it is known that the proteolytic activity cleaving these substrates is affected by BBI. After a 2 hour incubation at 37° C., the reaction was terminated by dilution with 1.8 ml distilled H2 O. Release of the fluorescent reporter group, amino-methyl coumarin, was determined spectrophotometrically at excitation and emission wavelengths of 380 and 460 nm, respectively. […] Data were standardized on the basis of protein content and expressed as proteolytic activity/μg protein.
In these studies, animals were untreated or treated twice weekly for three weeks with DMH. […] One group of treated animals was also exposed to 0.1% dietary BBIC during and after the DMH injection period. Animals were killed one month after the last DMH injection was given. Colon biopsy samples were obtained and proteolytic activity levels were determined as described for the human mucosal biopsy samples.

trypsin = experiment: gelatin zymogram, trypsin control lanes; assay type: biochemical; conditions: 10 μg/ml; 5 ng trypsin; lanes 4 and 6 vs lane 1
Protocol: BBI or BBIC (at 10 μg/ml) was added to some of the biopsy sample homogenates and protease activity was analyzed on gelatin zymograms. The same rat colon sample from a 14 day DNBS/ethanol treated rat was used for the protease/zymogram analyses. The gel was run at 200 V for 40 minutes and was then cut into pieces. Each gel/column was treated as follows: 1) Control-contained 5 ng trypsin; 2) UC sample incubated in Tris at pH 8.0; 3) UC sample incubated in Tris at pH 8.0 with BBI added to achieve a final concentration of 10 μg/ml; 4) Control-contained 5 ng trypsin with BBI added to achieve a final concentration of 10 μg/ml; 5) UC sample incubated in Tris at pH 8.0 with BBIC added to achieve a final concentration of 10 μg/ml; 6) Control-contained 5 ng trypsin with BBIC added to achieve a final concentration of 10 μg/ml.
Twelve percent sodium diodecyl sulfate (SDS) polyacrylamide gels of 0.75 mm thickness were prepared containing 0.1% gelatin. A 2% gelatin stock was prepared in advance by dissolving gelatin in warm distilled water. Samples were placed in the gel wells in standard SDS-gel-loading buffer that contained 0.1% SDS but lacked beta-mercaptoethanol. They were not boiled prior to loading. The gels were run at 200 V for 40 minutes in a Bio-Rad Mini Protean II apparatus and then soaked in distilled water containing 2% Triton X-100 on a gyrorotary shaker for 15 minutes at 20° C. […]

C3H10T1/2 cells = conditions: Yavelow et al., 1985; cited from earlier work
[2] = test system: cells of patients with Bloom's syndrome; conditions: Kennedy et al., 1984; cited from earlier work
[3] = test system: TPA-activated polymorphonuclear leukocytes (PMNs); conditions: TPA-activated human PMNs (Frenkel et al.); cited from earlier work
[4] = test system: DMH-induced colon and liver carcinogenesis; conditions: 0.5% of the diet or less (St. Clair et al.); cited from earlier work

Molecule | levels of proteolytic activity in colon mucosa of DMH-exposed animals [1] | Protease Activity/μg protein, Glt-Gly-Arg-MCA, Mean [1] [RFU/hr/Ag protein] | Protease Activity/μg protein, Boc-Val-Leu-Lys-MCA, Mean [1] [RFU/hr/Ag protein] | Protease Activity/μg protein, Boc-Val-Pro-Arg-MCA, Mean [1] [RFU/hr/Ag protein] | inhibition of proteolytic activity of trypsin (trypsin) | radiation induced transformation in C3H10T1/2 cells (C3H10T1/2 cells) | levels of chromosome abnormalities [2] | order of activity, inhibition of H2O2 formation [3] | effect upon the health of the mice [4]
CNNC [DMH, dimethylhydrazine, reference compound] | highly significant elevation | 6.15 | 10.15 | 43.43 | – | – | – | – | –
BBI: protease inhibitor derived from soybeans; 71 amino acid chain with 7 disulfide bonds, molecular weight approximately 8000 (protein, UniProt P01055 40-110, looked up) Bowman-Birk type proteinase …: DDESSKPCCDQCACTKSNPPQCRCSDMRLNSCHSACKSCICALSYPAQCFCVDITDFCYEPCKPSEDDKEN | not significantly different from control animals; also recorded: reduction in levels of these proteolytic activities | 0.81 | 1.96 | 22.22 | effectively inhibit the proteolytic activity of trypsin | suppresses radiation induced transformation in C3H10T1/2 cells | reduce the levels of chromosome abnormalities | PtI-1≥PCI-2>PtI-2>COI>BBI>TOOI>LBI>SBTI | no adverse effect upon the health of the mice
COI: chicken ovoinhibitor (protein, UniProt P10184 1-517, looked up) Ovoinhibitor: MTDWVLHHKVGPLDMTTRYIFPLLPLPFLPHSESKRAVCAPRCSAMRTARQFVQVALALCCFADIAFGIEVNCSLYASGIGKDGTSWVACPRNLKPVCGTDGSTYSNECGICLYNREHGANVEKEYDGECRPKHVTIDCSPYLQVVRDGNTMVACPRILKPVCGSDSFTYDNECGICAYNAEHHTNISKLHDGECKLEIGSVDCSKYPSTVSKDGRTLVACPRILSPVCGTDGFTYDNECGICAHNAEQRTHVSKKHDGKCRQEIPEIDCDQYPTRKTTGGKLLVRCPRILLPVCGTDGFTYDNECGICAHNAQHGTEVKKSHDGRCKERSTPLDCTQYLSNTQNGEAITACPFILQEVCGTDGVTYSNDCSLCAHNIELGTSVAKKHDGRCREEVPELDCSKYKTSTLKDGRQVVACTMIYDPVCATNGVTYASECTLCAHNLEQRTNLGKRKNGRCEEDITKEHCREFQKVSPICTMEYVPHCGSDGVTYSNRCFFCNAYVQSNRTLNLVSMAAC | – | – | – | – | – | – | – | PtI-1≥PCI-2>PtI-2>COI>BBI>TOOI>LBI>SBTI | –
SBTI: soybean (Kunitz) trypsin inhibitor (protein, UniProt P01070 25-205, looked up) Trypsin inhibitor A: DFVLDNEGNPLENGGTYYILSDITAFGGIRAAPTGNERCPLTVVQSRNELDKGIGTIISSPYRIRFIAEGHPLSLKFDSFAVIMLCVGIPTEWSVVEDLPEGPAVKIGENKDAMDGWFRLERVSDDEFNNYKLVFCPQQAEDDKCGDIGISIDHDDGTRRLVVSKNKPLVVQFQKLDKESL | – | – | – | – | – | – | – | PtI-1≥PCI-2>PtI-2>COI>BBI>TOOI>LBI>SBTI | –
